Test results reported in the supplement of paper PMC7877785.
± gives the uncertainty stated by the source.

Test: self-splicing fitness, log relative to wild type (ln ratio); higher = more splicing; Tetrahymena group I intron in knt gene, E. coli kanamycin selection, DiMSum; sequences stand for … in CUCUCU…GGAGGGAAAAGUUAUCAGGCAUGCACCUGGUAGCUAGUCUUUAAACCAAUAGAUUGCAUCGGUUUAAAAGGCAAGACCGUCAAAUUGCGGGAAAGGGGUCAACAGCCGUUCAGUACCAAGUCUCAGGGGAAACUUUGAGAUGGCCUUGCAAAGGGUAUGGUAAUAAGCUGACGGACAUGGUCCUAACCACGCAGCCAAGUCCUAAGUCAACAGAUCUUCUGUUGAUAUGGAUGCAGUUCACAGACUAAAUGUCGGUCGGGGAAGAUGUAUUCUUCUCAUAAGAUAUAGUCGGACCUCUCCUUAAUGGGAGCUAGCGGAUGAAGUGAUGCAACACUGGAGCCGCUGGGAACUAAUUUGUAUGCGAAAGUAUAUUGAUUAGUUUUGGAGUACUCGUGGUCG
Procedure, shortened: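 Library with all eight P1ex-region intron nucleotides randomised, intron inside the knt kanamycin-resistance gene on pET-22b(+), in E. coli BL21(DE3). Cells grew overnight at 37°C or 30°C on LB agar with or without 25 μg/mL kanamycin (plus 100 μg/mL carbenicillin, 50 μM IPTG, 0.2% rhamnose), in six replicate transformations. Pooled colonies were amplicon-sequenced on Illumina HiSeq 2500. DiMSum fitness is the error-weighted combination of wild-type-normalised replicate fold changes, kanamycin versus none.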

## CCAUAGCAAUAUUACGUUUA
30 °C
  self-splicing fitness (ln): -3.25 ± 0.23
37 °C
  self-splicing fitness (ln): -2.68 ± 0.25

## CCCAAGCAAUAUUACGACAG
30 °C
  self-splicing fitness (ln): -4.22 ± 0.15
37 °C
  self-splicing fitness (ln): -2.39 ± 0.12

## CCCAAGCAAUAUUACGACUA
30 °C
  self-splicing fitness (ln): -2.52 ± 0.17
37 °C
  self-splicing fitness (ln): -2.31 ± 0.18

## CCCAAGCAAUAUUACGAGGA
30 °C
  self-splicing fitness (ln): -1.42 ± 0.078
37 °C
  self-splicing fitness (ln): -0.592 ± 0.074

## CCCAAGCAAUAUUACGAUAA
30 °C
  self-splicing fitness (ln): -3.19 ± 0.14
37 °C
  self-splicing fitness (ln): -3.49 ± 0.2

## CCCAAGCAAUAUUACGAUUC
30 °C
  self-splicing fitness (ln): -3.69 ± 0.25
37 °C
  self-splicing fitness (ln): -2.1 ± 0.26

## CCCAAGCAAUAUUACGCACU
30 °C
  self-splicing fitness (ln): -3.57 ± 0.19
37 °C
  self-splicing fitness (ln): -2.72 ± 0.25

## CCCAAGCAAUAUUACGCAGU
30 °C
  self-splicing fitness (ln): -3.15 ± 0.14
37 °C
  self-splicing fitness (ln): -2.32 ± 0.18

## CCCAAGCAAUAUUACGCAUA
30 °C
  self-splicing fitness (ln): -3.47 ± 0.19
37 °C
  self-splicing fitness (ln): -2.49 ± 0.17

## CCCAAGCAAUAUUACGCCAG
30 °C
  self-splicing fitness (ln): -2.9 ± 0.19
37 °C
  self-splicing fitness (ln): -3.07 ± 0.33

## CCCAAGCAAUAUUACGCCUA
30 °C
  self-splicing fitness (ln): -2.65 ± 0.26
37 °C
  self-splicing fitness (ln): -2.8 ± 0.31

## CCCAAGCAAUAUUACGCGCG
30 °C
  self-splicing fitness (ln): -3.78 ± 0.23
37 °C
  self-splicing fitness (ln): -2.24 ± 0.21

## CCCAAGCAAUAUUACGCUCG
30 °C
  self-splicing fitness (ln): -3.17 ± 0.2
37 °C
  self-splicing fitness (ln): -2.14 ± 0.33

## CCCAAGCAAUAUUACGGCAC
30 °C
  self-splicing fitness (ln): -4.31 ± 0.36
37 °C
  self-splicing fitness (ln): -2.5 ± 0.21

## CCCAAGCAAUAUUACGGCAG
30 °C
  self-splicing fitness (ln): -3.73 ± 0.17
37 °C
  self-splicing fitness (ln): -1.65 ± 0.12

## CCCAAGCAAUAUUACGGGCA
30 °C
  self-splicing fitness (ln): -3.96 ± 0.18
37 °C
  self-splicing fitness (ln): -1.82 ± 0.11

## CCCAAGCAAUAUUACGGUUG
30 °C
  self-splicing fitness (ln): -3.99 ± 0.17
37 °C
  self-splicing fitness (ln): -2.52 ± 0.13

## CCCAAGCAAUAUUACGUAGC
30 °C
  self-splicing fitness (ln): -2.5 ± 0.42
37 °C
  self-splicing fitness (ln): -2.74 ± 0.39

## CCCAAGCAAUAUUACGUCUA
30 °C
  self-splicing fitness (ln): -4.2 ± 0.3
37 °C
  self-splicing fitness (ln): -2.92 ± 0.23

## CCCAAGCAAUAUUACGUCUU
30 °C
  self-splicing fitness (ln): -3.41 ± 0.11
37 °C
  self-splicing fitness (ln): -2.25 ± 0.12

## CCCAAGCAAUAUUACGUGGG
30 °C
  self-splicing fitness (ln): -3.29 ± 0.11
37 °C
  self-splicing fitness (ln): -2.82 ± 0.17

## CCCCAGCAAUAUUACGAAAC
30 °C
  self-splicing fitness (ln): -3.12 ± 0.2
37 °C
  self-splicing fitness (ln): -1.89 ± 0.27

## CCCCAGCAAUAUUACGACCU
30 °C
  self-splicing fitness (ln): -3.23 ± 0.15
37 °C
  self-splicing fitness (ln): -2.32 ± 0.23

## CCCCAGCAAUAUUACGAGGC
30 °C
  self-splicing fitness (ln): -3.53 ± 0.26
37 °C
  self-splicing fitness (ln): -3.1 ± 0.35

## CCCCAGCAAUAUUACGAGUC
30 °C
  self-splicing fitness (ln): -3.78 ± 0.14
37 °C
  self-splicing fitness (ln): -3.03 ± 0.17

## CCCCAGCAAUAUUACGCAAU
30 °C
  self-splicing fitness (ln): -2.96 ± 0.12
37 °C
  self-splicing fitness (ln): -1.34 ± 0.12

## CCCCAGCAAUAUUACGCAUC
30 °C
  self-splicing fitness (ln): -3.84 ± 0.31
37 °C
  self-splicing fitness (ln): -2.68 ± 0.3

## CCCCAGCAAUAUUACGCCAU
30 °C
  self-splicing fitness (ln): -2.14 ± 0.12
37 °C
  self-splicing fitness (ln): -2.32 ± 0.17

## CCCCAGCAAUAUUACGCCCU
30 °C
  self-splicing fitness (ln): -4.24 ± 0.39
37 °C
  self-splicing fitness (ln): -1.98 ± 0.28

## CCCCAGCAAUAUUACGCGUG
30 °C
  self-splicing fitness (ln): -4.14 ± 0.18
37 °C
  self-splicing fitness (ln): -2.76 ± 0.15

## CCCCAGCAAUAUUACGCUAG
30 °C
  self-splicing fitness (ln): -3.68 ± 0.13
37 °C
  self-splicing fitness (ln): -2.86 ± 0.17

## CCCCAGCAAUAUUACGGACC
30 °C
  self-splicing fitness (ln): -4.08 ± 0.35
37 °C
  self-splicing fitness (ln): -2.64 ± 0.26

## CCCCAGCAAUAUUACGGAGA
30 °C
  self-splicing fitness (ln): -2.32 ± 0.12
37 °C
  self-splicing fitness (ln): -1.61 ± 0.15

## CCCCAGCAAUAUUACGGCCC
37 °C
  self-splicing fitness (ln): -1.64 ± 0.47

## CCCCAGCAAUAUUACGGGCU
30 °C
  self-splicing fitness (ln): -3.75 ± 0.17
37 °C
  self-splicing fitness (ln): -2.32 ± 0.17

## CCCCAGCAAUAUUACGGGGG
30 °C
  self-splicing fitness (ln): -4.74 ± 0.16
37 °C
  self-splicing fitness (ln): -2.67 ± 0.12

## CCCCAGCAAUAUUACGGUGG
30 °C
  self-splicing fitness (ln): -4.09 ± 0.2
37 °C
  self-splicing fitness (ln): -1.86 ± 0.11

## CCCCAGCAAUAUUACGGUUG
30 °C
  self-splicing fitness (ln): -2.4 ± 0.087
37 °C
  self-splicing fitness (ln): -1.5 ± 0.1

## CCCCAGCAAUAUUACGUAAC
30 °C
  self-splicing fitness (ln): -5 ± 0.27
37 °C
  self-splicing fitness (ln): -2.67 ± 0.18

## CCCCAGCAAUAUUACGUGUC
30 °C
  self-splicing fitness (ln): -4.78 ± 0.2
37 °C
  self-splicing fitness (ln): -2.53 ± 0.15

## CCCCAGCAAUAUUACGUGUG
30 °C
  self-splicing fitness (ln): -2.66 ± 0.084
37 °C
  self-splicing fitness (ln): -2.5 ± 0.11

## CCCGAGCAAUAUUACGAACG
37 °C
  self-splicing fitness (ln): -1.84 ± 0.44

## CCCGAGCAAUAUUACGAAGA
30 °C
  self-splicing fitness (ln): -2.86 ± 0.31

## CCCGAGCAAUAUUACGAAUU
37 °C
  self-splicing fitness (ln): -2.44 ± 0.35

## CCCGAGCAAUAUUACGACCU
30 °C
  self-splicing fitness (ln): -2.45 ± 0.31
37 °C
  self-splicing fitness (ln): -2.19 ± 0.32

## CCCGAGCAAUAUUACGAGGC
30 °C
  self-splicing fitness (ln): -2.89 ± 0.28
37 °C
  self-splicing fitness (ln): -2.47 ± 0.27

## CCCGAGCAAUAUUACGAGUU
30 °C
  self-splicing fitness (ln): -4.2 ± 0.19
37 °C
  self-splicing fitness (ln): -2.29 ± 0.17

## CCCGAGCAAUAUUACGAUAG
30 °C
  self-splicing fitness (ln): -3.17 ± 0.22
37 °C
  self-splicing fitness (ln): -2.02 ± 0.2

## CCCGAGCAAUAUUACGAUAU
30 °C
  self-splicing fitness (ln): -4.76 ± 0.45
37 °C
  self-splicing fitness (ln): -2.2 ± 0.22
